Assay results from patent publication US20050249735A1.

Experiments:
[1] = target: human lymphotoxin (TNFβ) (human) (UniProt P01374); test: cell-based or functional assay
[2] = target: human tumor necrosis factor-alpha (TNFα) (human) (UniProt P01375); test: cell-based or functional assay
Sequence of human tumor necrosis factor-alpha (TNFα) (human) (P01375 77-233): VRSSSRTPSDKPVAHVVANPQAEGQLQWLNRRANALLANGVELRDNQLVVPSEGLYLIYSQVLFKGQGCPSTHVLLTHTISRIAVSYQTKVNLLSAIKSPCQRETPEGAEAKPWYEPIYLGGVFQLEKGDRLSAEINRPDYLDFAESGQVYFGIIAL

Sequence of human lymphotoxin (TNFβ) (human) (P01374 35-205 limits assumed): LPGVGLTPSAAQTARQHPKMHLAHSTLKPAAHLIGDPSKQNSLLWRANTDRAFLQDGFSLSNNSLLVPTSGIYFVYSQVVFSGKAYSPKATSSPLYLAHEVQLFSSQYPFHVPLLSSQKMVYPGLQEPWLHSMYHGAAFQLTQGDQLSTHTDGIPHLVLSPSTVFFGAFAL

p55-sf2 (p55 TNF receptor / IgG1 heavy chain single fusion with truncated light chain JCK) (from UniProt P01857 1-330) (Fc fusion)
amount needed for the same degree of inhibition of TNFβ cytotoxicity, against p75P-sf2 [1]: 3 fold

p75-sf2 (complete extracellular domain of p75 fused to the heavy chain) (from UniProt P20333 23-257; P01857 1-330) (Fc fusion)
amount needed for the same degree of inhibition of TNFβ cytotoxicity, against p75P-sf2 [1]: 3 fold

p75P-sf2 (p75 heavy chain fusion lacking the C-terminal 53 amino acids of the p75 extracellular domain) (from UniProt P20333 23-204; P01857 1-330) (Fc fusion)
concentration to half-inhibit human TNFβ at 2 pM, WEHI 164 cytotoxicity [1]: 31 pM

B1: chimeric mouse/human IgG1 anti-platelet mAb (7E3) (antibody, INN chains, looked up, V domains shown)
VH: EVQLQQSGTVLARPGASVKMSCEASGYTFTNYWMHWVKQRPGQGLEWIGAIYPGNSDTSYIQKFKGKAKLTAVTSTTSVYMELSSLTNEDSAVYYCTLYDGYYVFAYWGQGTLVTVSA
VL: EIVLTQSPVTLSVTPGDSVSLSCRASRDISNNLHWFQQTSHESPRLLIKYASQSMSGIPSRFSGSGSGTDFTLSINSVETEDFGMYFCQQTNSWPYTFGGGTKLEIK
modifications: full IgG1
IL-6 in supernatant of FS-4 fibroblasts, rhTNF 0.3 ng/ml, 4 µg/ml antibody [2]: 1.6 ng/mL | IL-6 in supernatant of FS-4 fibroblasts, rhTNF 1.5 ng/ml, 4 µg/ml antibody [2]: 1.96 ng/mL | IL-6 in supernatant of FS-4 fibroblasts, rhTNF 7.5 ng/ml, 4 µg/ml antibody [2]: 2.16 ng/mL
